Measurements reported in IntAct's records for PubMed 29892012.

B1: Protein VAC14 homolog (Homo sapiens), Q08AM6 (parent)
chain: MNPEKDFAPLTPNIVRALNDKLYEKRKVAALEIEKLVREFVAQNNTVQIKHVIQTLSQEFALSQHPHSRKGGLIGLAACSIALGKDSGLYLKELIEPVLTCFNDADSRLRYYACEALYNIVKVARGAVLPHFNVLFDGLSKLAADPDPNVKSGSELLDRLLKDIVTESNKFDLVSFIPLLRERIYSNNQYARQFIISWILVLESVPDINLLDYLPEILDGLFQILGDNGKEIRKMCEVVLGEFLKEIKKNPSSVKFAEMANILVIHCQTTDDLIQLTAMCWMREFIQLAGRVMLPYSSGILTAVLPCLAYDDRKKSIKEVANVCNQSLMKLVTPEDDELDELRPGQRQAEPTPDDALPKQEGTASGGPDGSCDSSFSSGISVFTAASTERAPVTLHLDGIVQVLNCHLSDTAIGMMTRIAVLKWLYHLYIKTPRKMFRHTDSLFPILLQTLSDESDEVILKDLEVLAEIASSPAGQTDDPGPLDGPDLQASHSELQVPTPGRAGLLNTSGTKGLECSPSTPTMNSYFYKFMINLLKRFSSERKLLEVRGPFIIRQLCLLLNAENIFHSMADILLREEDLKFASTMVHALNTILLTSTELFQLRNQLKDLKTLESQNLFCCLYRSWCHNPVTTVSLCFLTQNYRHAYDLIQKFGDLEVTVDFLAEVDKLVQLIECPIFTYLRLQLLDVKNNPYLIKALYGLLMLLPQSSAFQLLSHRLQCVPNPELLQTEDSLKAAPKSQKADSPSIDYAELLQHFEKVQNKHLEVRHQRSGRGDHLDRRVVL
partner: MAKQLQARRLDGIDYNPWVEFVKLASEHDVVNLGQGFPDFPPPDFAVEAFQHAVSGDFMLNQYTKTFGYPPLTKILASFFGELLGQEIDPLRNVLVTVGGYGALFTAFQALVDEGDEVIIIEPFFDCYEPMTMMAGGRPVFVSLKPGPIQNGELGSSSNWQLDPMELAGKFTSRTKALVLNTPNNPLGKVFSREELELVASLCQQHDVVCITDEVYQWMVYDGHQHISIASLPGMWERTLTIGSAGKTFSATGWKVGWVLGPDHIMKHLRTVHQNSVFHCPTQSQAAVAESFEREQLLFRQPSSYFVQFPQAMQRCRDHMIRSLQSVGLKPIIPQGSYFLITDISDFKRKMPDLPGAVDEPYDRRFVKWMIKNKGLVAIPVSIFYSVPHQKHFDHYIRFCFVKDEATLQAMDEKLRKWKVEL
B2: Structure-specific endonuclease subunit SLX4 (Homo sapiens), Q8IY92 (parent)
chain: MKLSVNEAQLGFYLGSLSHLSACPGIDPRSSEDQPESLKTGQMMDESDEDFKELCASFFQRVKKHGIKEVSGERKTQKAASNGTQIRSKLKRTKQTATKTKTLQGPAEKKPPSGSQAPRTKKQRVTKWQASEPAHSVNGEGGVLASAPDPPVLRETAQNTQTGNQQEPSPNLSREKTRENVPNSDSQPPPSCLTTAVPSPSKPRTAQLVLQRMQQFKRADPERLRHASEECSLEAAREENVPKDPQEEMMAGNVYGLGPPAPESDAAVALTLQQEFARVGASAHDDSLEEKGLFFCQICQKNLSAMNVTRREQHVNRCLDEAEKTLRPSVPQIPECPICGKPFLTLKSRTSHLKQCAVKMEVGPQLLLQAVRLQTAQPEGSSSPPMFSFSDHSRGLKRRGPTSKKEPRKRRKVDEAPSEDLLVAMALSRSEMEPGAAVPALRLESAFSERIRPEAENKSRKKKPPVSPPLLLVQDSETTGRQIEDRVALLLSEEVELSSTPPLPASRILKEGWERAGQCPPPPERKQSFLWEGSALTGAWAMEDFYTARLVPPLVPQRPAQGLMQEPVPPLVPPEHSELSERRSPALHGTPTAGCGSRGPSPSASQREHQALQDLVDLAREGLSASPWPGSGGLAGSEGTAGLDVVPGGLPLTGFVVPSQDKHPDRGGRTLLSLGLLVADFGAMVNNPHLSDVQFQTDSGEVLYAHKFVLYARCPLLIQYVNNEGFSAVEDGVLTQRVLLGDVSTEAARTFLHYLYTADTGLPPGLSSELSSLAHRFGVSELVHLCEQVPIATDSEGKPWEEKEAENCESRAENFQELLRSMWADEEEEAETLLKSKDHEEDQENVNEAEMEEIYEFAATQRKLLQEERAAGAGEDADWLEGGSPVSGQLLAGVQVQKQWDKVEEMEPLEPGRDEAATTWEKMGQCALPPPQGQHSGARGAEAPEQEAPEEALGHSSCSSPSRDCQAERKEGSLPHSDDAGDYEQLFSSTQGEISEPSQITSEPEEQSGAVRERGLEVSHRLAPWQASPPHPCRFLLGPPQGGSPRGSHHTSGSSLSTPRSRGGTSQVGSPTLLSPAVPSKQKRDRSILTLSKEPGHQKGKERRSVLECRNKGVLMFPEKSPSIDLTQSNPDHSSSRSQKSSSKLNEEDEVILLLDSDEELELEQTKMKSISSDPLEEKKALEISPRSCELFSIIDVDADQEPSQSPPRSEAVLQQEDEGALPENRGSLGRRGAPWLFCDRESSPSEASTTDTSWLVPATPLASRSRDCSSQTQISSLRSGLAVQAVTQHTPRASVGNREGNEVAQKFSVIRPQTPPPQTPSSCLTPVSPGTSDGRRQGHRSPSRPHPGGHPHSSPLAPHPISGDRAHFSRRFLKHSPPGPSFLNQTPAGEVVEVGDSDDEQEVASHQANRSPPLDSDPPIPIDDCCWHMEPLSPIPIDHWNLERTGPLSTSSPSRRMNEAADSRDCRSPGLLDTTPIRGSCTTQRKLQEKSSGAGSLGNSRPSFLNSALWDVWDGEEQRPPETPPPAQMPSAGGAQKPEGLETPKGANRKKNLPPKVPITPMPQYSIMETPVLKKELDRFGVRPLPKRQMVLKLKEIFQYTHQTLDSDSEDESQSSQPLLQAPHCQTLASQTYKPSRAGVHAQQEATTGPGAHRPKGPAKTKGPRHQRKHHESITPPSRSPTKEAPPGLNDDAQIPASQESVATSVDGSDSSLSSQSSSSCEFGAAFESAGEEEGEGEVSASQAAVQAADTDEALRCYIRSKPALYQKVLLYQPFELRELQAELRQNGLRVSSRRLLDFLDTHCITFTTAATRREKLQGRRRQPRGKKKVERN
partner: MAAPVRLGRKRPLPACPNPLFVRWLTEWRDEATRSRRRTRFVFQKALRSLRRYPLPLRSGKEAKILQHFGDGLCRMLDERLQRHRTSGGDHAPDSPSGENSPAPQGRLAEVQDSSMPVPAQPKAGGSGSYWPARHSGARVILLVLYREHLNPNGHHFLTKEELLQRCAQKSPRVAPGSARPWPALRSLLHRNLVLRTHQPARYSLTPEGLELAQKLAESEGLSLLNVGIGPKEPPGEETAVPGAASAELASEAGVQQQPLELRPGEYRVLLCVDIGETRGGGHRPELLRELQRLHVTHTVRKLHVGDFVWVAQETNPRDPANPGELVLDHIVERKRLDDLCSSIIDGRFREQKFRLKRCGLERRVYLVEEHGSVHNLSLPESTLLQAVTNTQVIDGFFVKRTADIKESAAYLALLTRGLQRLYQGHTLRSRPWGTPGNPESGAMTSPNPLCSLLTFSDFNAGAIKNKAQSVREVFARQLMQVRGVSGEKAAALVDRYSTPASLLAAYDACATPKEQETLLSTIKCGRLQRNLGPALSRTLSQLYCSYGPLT
B3: Protein VAC14 homolog (Homo sapiens), Q08AM6 (parent)
chain: B1 chain
partner: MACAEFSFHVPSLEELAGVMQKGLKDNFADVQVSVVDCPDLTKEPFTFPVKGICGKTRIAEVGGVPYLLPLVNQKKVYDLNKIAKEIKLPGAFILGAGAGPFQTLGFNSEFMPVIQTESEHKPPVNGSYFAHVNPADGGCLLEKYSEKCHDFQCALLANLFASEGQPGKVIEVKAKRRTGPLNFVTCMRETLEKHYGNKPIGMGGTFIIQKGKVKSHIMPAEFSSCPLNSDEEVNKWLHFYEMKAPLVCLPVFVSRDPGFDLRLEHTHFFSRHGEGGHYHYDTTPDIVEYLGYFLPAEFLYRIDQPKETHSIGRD
B4: Ribosome assembly protein METTL17, mitochondrial (Homo sapiens), Q9H7H0 (parent)
chain: MAAALKCLLTLGRWCPGLGVAPQARALAALVPGVTQVDNKSGFLQKRPHRQHPGILKLPHVRLPQALANGAQLLLLGSAGPTMENQVQTLTSYLWSRHLPVEPEELQRRARHLEKKFLENPDLSQTEEKLRGAVLHALRKTTYHWQELSYTEGLSLVYMAARLDGGFAAVSRAFHEIRARNPAFQPQTLMDFGSGTGSVTWAAHSIWGQSLREYMCVDRSAAMLVLAEKLLKGGSESGEPYIPGVFFRQFLPVSPKVQFDVVVSAFSLSELPSKADRTEVVQTLWRKTGHFLVLVENGTKAGHSLLMDARDLVLKGKEKSPLDPRPGFVFAPCPHELPCPQLTNLACSFSQAYHPIPFSWNKKPKEEKFSMVILARGSPEEAHRWPRITQPVLKRPRHVHCHLCCPDGHMQHAVLTARRHGRDLYRCARVSSWGDLLPVLTPSAFPPSTAQDPSES
partner: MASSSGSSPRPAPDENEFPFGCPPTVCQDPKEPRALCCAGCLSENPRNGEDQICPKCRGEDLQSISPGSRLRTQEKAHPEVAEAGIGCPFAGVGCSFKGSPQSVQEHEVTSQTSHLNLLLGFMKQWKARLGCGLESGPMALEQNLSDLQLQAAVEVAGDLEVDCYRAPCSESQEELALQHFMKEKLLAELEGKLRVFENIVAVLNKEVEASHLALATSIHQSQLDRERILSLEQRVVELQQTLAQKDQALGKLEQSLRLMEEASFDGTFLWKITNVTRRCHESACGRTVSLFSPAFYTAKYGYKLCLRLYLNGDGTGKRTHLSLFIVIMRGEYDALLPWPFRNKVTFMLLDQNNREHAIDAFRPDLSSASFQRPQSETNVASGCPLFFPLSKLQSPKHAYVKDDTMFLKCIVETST
B5: Ribosome assembly protein METTL17, mitochondrial (Homo sapiens), Q9H7H0 (parent)
chain: B4 chain
partner: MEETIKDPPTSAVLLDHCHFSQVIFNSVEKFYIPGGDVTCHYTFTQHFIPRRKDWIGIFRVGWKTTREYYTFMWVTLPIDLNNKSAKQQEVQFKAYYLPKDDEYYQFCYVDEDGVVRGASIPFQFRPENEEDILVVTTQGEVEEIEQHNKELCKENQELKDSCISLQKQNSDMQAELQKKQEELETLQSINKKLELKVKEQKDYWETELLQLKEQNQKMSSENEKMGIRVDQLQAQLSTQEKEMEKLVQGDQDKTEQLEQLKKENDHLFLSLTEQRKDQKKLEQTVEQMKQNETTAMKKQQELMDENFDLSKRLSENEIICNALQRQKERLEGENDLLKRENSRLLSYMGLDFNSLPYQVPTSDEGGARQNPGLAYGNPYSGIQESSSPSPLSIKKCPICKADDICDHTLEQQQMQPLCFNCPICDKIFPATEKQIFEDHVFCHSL

Variants of: B1
Conditions: with kat1_human KYAT1, Q16773

effect of a mutation on the interaction	Variant
with no effect	A127S

Variants of: B2
Conditions: with mus81_human MUS81, Q96NY9

effect of a mutation on the interaction	Variant
with no effect	V886L

Variants of: B2
Conditions: with mus81_human MUS81, Q96NY9
Remark: another data set of the same source

effect of a mutation on the interaction	Variant
disrupting interaction strength	F708L

Variants of: B3
Conditions: with ck054_human C11orf54, Q9H0W9

effect of a mutation on the interaction	Variant
with no effect	A127S

Variants of: B4
Conditions: with traf1_human TRAF1, Q13077

effect of a mutation on the interaction	Variant
with no effect	R212H

Variants of: B5
Conditions: with caco2_human CALCOCO2, Q13137

effect of a mutation on the interaction	Variant
disrupting interaction strength	R212H
